System: B220^+/CD11c^dim/CD11b^− p-preDC
Experiment: Activation marker expression on sorted p-preDC after 18 h culture (FACS)
Type: cell-based, mice
Settings: p-preDC from 10 day FL-cultured BMC versus fresh p-preDC
Source text: mAbs and Flow cytometry. The following mAbs (all from BD Biosciences Pharmingen, San Diego, Calif., except those labeled with APC-cy-7 from eBioscience, San Diego, Calif.) were used. To sort CD8^+/TCR^− FC: anti-CD8α (53-6.7) PE-labeled, anti-TCR β chain (H57-597) and anti-TCR γδ chain (GL3) FITC-labeled. To sort B220^+/CD11c^dim/CD11b^− p-preDC: anti-CD11b (M1/70) APC-labeled, anti-CD45R/B220 (RA3-6B2) APC-Cy7-labeled, anti-CD11c (HL3) PE-labeled, and anti-TCR β chain (H57-597), anti-TCR γδ chain (GL3), anti-CD14 (rmC5-3), anti-CD19 (1D3), anti-Pan-NK cells (DX5), and anti-NK1.1 (PK136), all FITC-labeled. To sort HSC: anti-TCR β chain (H57-597), anti-TCR γδ chain (GL3), anti-Ly-6G (Gr-1), anti-CD11b, Mac1 (M1/70), anti-CD8α (53-6.7) and anti-CD45R/B220 (RA3-6B2), all FITC-labeled, anti-Ly-6A/E (Sca-1) (E13-161.7) PE-labeled and anti-c-Kit (CD117) (2B8) APC-labeled. To restain the sorted FC population: purified anti-CD16/CD32 (FcγIII/II receptors) (2.4G2), anti-CD11c (HL3), anti-CD4 (RM4-5) and anti-CD19 (1D3) all APC-labeled, anti-CD45R/B220 (RA3-6B2) PerCP-labeled, and anti-Pan-NK cells (DX5), anti-NK1.1 (PK136), anti-CD14 (rmC5-3), and anti-Ly-6G (Gr-1) FITC-labeled. To analyze the activation state: anti-CD80 (B7-1) ([…]), anti-CD86 (B7-2) ([…]), and anti-I-A^b (Aβ^b) (AF6-120.1) FITC-labeled. For PBL typing and multilineage chimerism: anti-H-2 K^b (AF6-88.5) PE or FITC-labeled, anti-H-2K^k (36-7-5) PE or FITC-labeled, anti-TCR β chain (H57-597), anti-NK1.1 (PK136), anti-Ly-6G (Gr-1), anti-CD11b, Mac1 (M1/70) and anti-CD45R/B220 (RA3-6B2) all FITC-labeled. Detection of dead cells after cell culture was determined by using a 7-Amino-actinomycin D (7-AAD) (Molecular Probes, Eugene, Oreg.) followed by FACS analysis.
CpG oligodeoxynucleotides (ODN) stimulation. Sorted p-preDC or FC were cultured for 18 hours at 10^5 cells/200 μL in 96 well round-bottom culture plates in culture medium in the presence or absence of Toll-like receptor (TLR)-9 ligand, CPG-ODN 1668 (TCCATGACGTTCCGATGCT) (SEQ ID NO. 1) (GibcoBRL Custom Primers) at 1 μM, TLR-4 ligand, LPS from Escherichia coli (Sigma, MO, USA) at 10 μg/ml, as previously described^30. CpG or LPS-treated or untreated cells were subsequently assayed for: 1) the expression of DC activation/maturation cell surface markers by FACS, 2) their survival rate by 7AAD staining, or 3) morphological appearance by Wright Giemsa staining on cytospins. The supernatant of these cultures were collected for analysis of the production of different cytokines by ELISA.

B1: FL: Recombinant human Flt-3 Ligand (FL, kindly provided by Amgen, Seattle, Wash.) (protein, UniProt P49771 27-235, looked up)
Fms-related tyrosine kinase 3 …: TQDCSFQHSPISSDFAVKIRELSDYLLQDYPVTVASNLQDEELCGGLWRLVLAQRWMERLKTVAGSKMQGLLERVNTEIHFVTKCAFQPPPSCLRFVQTNISRLLQETSEQLVALKPWITRQNFSRCLELQCQPDSSTLPPPWSPRPLEATAPTAPQPPLLLLLLLPVGLLLLAAAWCLHWQRTRRRTPRPGEQVPPVPSPQDLLLVEH
upregulated: CD80 level on FL-derived p-preDC | CD86 level on FL-derived p-preDC | Class II level on FL-derived p-preDC
